Measurements published in patent US20180155451A1 (published 2018).
Like-named read-outs stand apart in the source and are kept apart here.

T1: FcγRIIb (human, UniProt P31994 43-217)
T1 construct: extracellular domain; also called FcgRIIb; 2b; not shown: His tag at the C terminus
T1 sequence (looked up): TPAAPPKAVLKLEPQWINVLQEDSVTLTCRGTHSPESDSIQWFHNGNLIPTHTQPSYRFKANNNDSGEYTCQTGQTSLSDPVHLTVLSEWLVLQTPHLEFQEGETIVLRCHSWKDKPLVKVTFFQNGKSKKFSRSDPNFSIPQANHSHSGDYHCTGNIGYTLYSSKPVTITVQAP

T2: FcγRIIa H (human, UniProt P12318 34-217)
T2 construct: extracellular domain; Soluble His-tagged extracellular domain expressed in FreeStyle293 cells; also called FcγRIIa type H; FcgRIIa H; not shown: His tag attached to the C terminus
T2 sequence (looked up): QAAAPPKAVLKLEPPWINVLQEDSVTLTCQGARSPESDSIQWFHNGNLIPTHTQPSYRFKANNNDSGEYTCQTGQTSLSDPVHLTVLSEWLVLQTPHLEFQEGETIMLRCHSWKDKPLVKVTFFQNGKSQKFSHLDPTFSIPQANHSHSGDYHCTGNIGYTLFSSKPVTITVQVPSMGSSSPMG

T3: FcγRIIb (human, UniProt P31994 43-217)
T3 construct: extracellular domain; Soluble His-tagged extracellular domain expressed in FreeStyle293 cells; also called FcgRIIb; 2b; not shown: His tag attached to the C terminus
T3 sequence (looked up): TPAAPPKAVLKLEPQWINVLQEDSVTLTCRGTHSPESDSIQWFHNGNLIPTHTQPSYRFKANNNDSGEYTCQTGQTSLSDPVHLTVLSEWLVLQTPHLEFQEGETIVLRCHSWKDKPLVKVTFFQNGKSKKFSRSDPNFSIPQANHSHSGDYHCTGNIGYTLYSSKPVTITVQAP


Key:
FcγRIa [1] = biological target: T4, FcγRIa (human, UniProt P12314 16-292); assay: SPR (Biacore), antibody captured, FcγR as analyte; binding as % of GpH7-A5/GpH7-B3/GpL16-k0
T4 construct: extracellular domain; also called FcgRI; 1a; not shown: His tag at the C terminus
T4 sequence (P12314 16-292): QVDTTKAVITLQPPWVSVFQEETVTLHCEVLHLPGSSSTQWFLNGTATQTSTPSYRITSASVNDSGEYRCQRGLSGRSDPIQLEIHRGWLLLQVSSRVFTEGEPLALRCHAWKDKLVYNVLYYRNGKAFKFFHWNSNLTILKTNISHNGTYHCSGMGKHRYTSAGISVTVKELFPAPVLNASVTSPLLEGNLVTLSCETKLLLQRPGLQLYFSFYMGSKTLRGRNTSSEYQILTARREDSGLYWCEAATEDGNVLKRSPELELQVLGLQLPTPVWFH

FcγRIIb [2] = biological target: T1, FcγRIIb; assay: as above
FcγRIa [3] = biological target: T4, FcγRIa; assay: SPR (Biacore); He/Con_1a (FcγRIa) divided by He/Con_2b (FcγRIIb)
FcγRIa [4] = biological target: T4, FcγRIa; assay: SPR (Biacore), antibody captured, FcγR as analyte; binding as % of GpH7-A5/GpH7-B3/GpL16-k0; remark: listed apart in the source
FcγRIIb [5] = biological target: T1, FcγRIIb; assay: as above; remark: listed apart in the source
FcγRIIa H = biological target: T2, FcγRIIa H; assay: SPR (Biacore), captured antibody, FcγR analyte; relative to GpH7-A5/GpH7-B3/GpL16-k0 = 100
Procedure: (§1) The heterodimerized antibodies He Abs in which one of the H chains was introduced with an alteration were assayed for their binding activities to each activating FcγR and inhibitory FcγR according to the method described in Example 4. […] The activating FcγRs in FIGS. 26, 27, 28, and 29 are FcγRIa, FcγRIIa (R), FcγRIIa (H), and FcγRIIIa, respectively.
(§2) Analysis of interaction between objective antibody and the FcγR was carried out using Biacore T100 (GE Healthcare). HBS-EP+ (GE Healthcare) was used as the running buffer, and the measurement temperature was set to 25° C. Chips produced by immobilizing the antigen peptide by the amine coupling method to a Series S Sencor Chip CM5 (GE Healthcare), or alternatively, chips produced by allowing preliminarily biotinylated antigen peptides to interact with and immobilize onto a Series S Sensor Chip SA (certified) (GE Healthcare) were used. Antibodies of interest were captured onto an antigen peptide-immobilized chip, and allowed to interact to each FcγR diluted with running buffer. To regenerate and repeatedly use the chip, the antibodies captured on the chip were washed off by reacting 10 mM glycine-HCl, pH 1.5.

FcγRIIb [6] = biological target: T3, FcγRIIb; assay: as above
Procedure: as §1, §2

Binder	He/Con_1a (FcγRIa [1])	He/Con_2b (FcγRIIb [2])	Ia/IIb He_1a/2b (FcγRIa [3]) [ratio]	He/Con_1a (FcγRIa [4])	He/Con_2b (FcγRIIb [5])	He/Con_2aH (FcγRIIa H)	He/Con_2b (FcγRIIb [6])
GpH7-A5/GpH7-B3 variant N325_20W/GpL16-k0 (antibody, human IgG1, kappa, heterodimerized IgG1; alteration in the GpH7-B3 H chain only; also called He Ab) heavy 1: not shown heavy 2: not shown light: DIVMTQSPLSLPVTPGEPASISCQASESLVHSNRNTYLHWYLQKPGQSPQLLIYKVSNRFSGVPDRFSGSGSGTDFTLKISRVEAEDVGVYYCSQNTHVPPTFGQGTKVEIERTVAAPSVFIFPPSDEQLKSGTASVVCLLNNFYPREAKVQWKVDNALQSGNSQESVTEQDSKDSTYSLSSTLTLSKADYEKHKVYACEVTHQGLSSPVTKSFNRGEC	93.8 % of control	169 % of control	0.56	93.8 % of control	169 % of control	–	–
GpH7-A5/GpH7-B3 variant N325_13S/GpL16-k0 (antibody, human IgG1, kappa, heterodimerized IgG1; alteration in the GpH7-B3 H chain only; also called He Ab) heavy 1: not shown heavy 2: not shown light: DIVMTQSPLSLPVTPGEPASISCQASESLVHSNRNTYLHWYLQKPGQSPQLLIYKVSNRFSGVPDRFSGSGSGTDFTLKISRVEAEDVGVYYCSQNTHVPPTFGQGTKVEIERTVAAPSVFIFPPSDEQLKSGTASVVCLLNNFYPREAKVQWKVDNALQSGNSQESVTEQDSKDSTYSLSSTLTLSKADYEKHKVYACEVTHQGLSSPVTKSFNRGEC	96.8 % of control	177 % of control	0.55	96.8 % of control	177 % of control	–	–
GpH7-A5/GpH7-B3 variant L328_07I/GpL16-k0 (antibody, human IgG1, kappa, heterodimerized IgG1; alteration in the GpH7-B3 H chain only; also called He Ab) heavy 1: not shown heavy 2: not shown light: DIVMTQSPLSLPVTPGEPASISCQASESLVHSNRNTYLHWYLQKPGQSPQLLIYKVSNRFSGVPDRFSGSGSGTDFTLKISRVEAEDVGVYYCSQNTHVPPTFGQGTKVEIERTVAAPSVFIFPPSDEQLKSGTASVVCLLNNFYPREAKVQWKVDNALQSGNSQESVTEQDSKDSTYSLSSTLTLSKADYEKHKVYACEVTHQGLSSPVTKSFNRGEC	99.4 % of control	160 % of control	0.62	99.4 % of control	160 % of control	–	–
GpH7-A5/GpH7-B3 variant N325_08L/GpL16-k0 (antibody, human IgG1, kappa, heterodimerized IgG1; alteration in the GpH7-B3 H chain only; also called He Ab) heavy 1: not shown heavy 2: not shown light: DIVMTQSPLSLPVTPGEPASISCQASESLVHSNRNTYLHWYLQKPGQSPQLLIYKVSNRFSGVPDRFSGSGSGTDFTLKISRVEAEDVGVYYCSQNTHVPPTFGQGTKVEIERTVAAPSVFIFPPSDEQLKSGTASVVCLLNNFYPREAKVQWKVDNALQSGNSQESVTEQDSKDSTYSLSSTLTLSKADYEKHKVYACEVTHQGLSSPVTKSFNRGEC	97.5 % of control	197 % of control	0.5	–	–	–	–

Next, values leading:

He/Con_1a (FcγRIa [1])	He/Con_2b (FcγRIIb [2])	Ia/IIb He_1a/2b (FcγRIa [3]) [ratio]	He/Con_1a (FcγRIa [4])	He/Con_2b (FcγRIIb [5])	He/Con_2aH (FcγRIIa H)	He/Con_2b (FcγRIIb [6])	Binder
92.4 % of control	116 % of control	0.8	–	–	–	–	GpH7-A5/GpH7-B3 variant P331_16H/GpL16-k0 (antibody, human IgG1, kappa, heterodimerized IgG1; alteration in the GpH7-B3 H chain only; also called He Ab) heavy 1: not shown heavy 2: not shown light: DIVMTQSPLSLPVTPGEPASISCQASESLVHSNRNTYLHWYLQKPGQSPQLLIYKVSNRFSGVPDRFSGSGSGTDFTLKISRVEAEDVGVYYCSQNTHVPPTFGQGTKVEIERTVAAPSVFIFPPSDEQLKSGTASVVCLLNNFYPREAKVQWKVDNALQSGNSQESVTEQDSKDSTYSLSSTLTLSKADYEKHKVYACEVTHQGLSSPVTKSFNRGEC
–	–	–	–	–	99.8 relative (control = 100)	103 relative (control = 100)	GpH7-A5/GpH7-B3 variant S337_18N/GpL16-k0 (antibody, human IgG1, kappa, Heterodimerized anti-glypican-3 IgG1; mutation in the GpH7-B3 H chain only; also called He Ab) heavy 1: not shown heavy 2: not shown light: DIVMTQSPLSLPVTPGEPASISCQASESLVHSNRNTYLHWYLQKPGQSPQLLIYKVSNRFSGVPDRFSGSGSGTDFTLKISRVEAEDVGVYYCSQNTHVPPTFGQGTKVEIERTVAAPSVFIFPPSDEQLKSGTASVVCLLNNFYPREAKVQWKVDNALQSGNSQESVTEQDSKDSTYSLSSTLTLSKADYEKHKVYACEVTHQGLSSPVTKSFNRGEC
92 % of control	119 % of control	0.78	92 % of control	119 % of control	–	–	GpH7-A5/GpH7-B3 variant P331_03V/GpL16-k0 (antibody, human IgG1, kappa, heterodimerized IgG1; alteration in the GpH7-B3 H chain only; also called He Ab) heavy 1: not shown heavy 2: not shown light: DIVMTQSPLSLPVTPGEPASISCQASESLVHSNRNTYLHWYLQKPGQSPQLLIYKVSNRFSGVPDRFSGSGSGTDFTLKISRVEAEDVGVYYCSQNTHVPPTFGQGTKVEIERTVAAPSVFIFPPSDEQLKSGTASVVCLLNNFYPREAKVQWKVDNALQSGNSQESVTEQDSKDSTYSLSSTLTLSKADYEKHKVYACEVTHQGLSSPVTKSFNRGEC
